Data on 20 molecules can be found in patent US20230312741A1 (published 2023).

Sequences and labels used below:
T1: human CD73 expressed on the cell surface (human, UniProt P21589 27-549)
T1 sequence: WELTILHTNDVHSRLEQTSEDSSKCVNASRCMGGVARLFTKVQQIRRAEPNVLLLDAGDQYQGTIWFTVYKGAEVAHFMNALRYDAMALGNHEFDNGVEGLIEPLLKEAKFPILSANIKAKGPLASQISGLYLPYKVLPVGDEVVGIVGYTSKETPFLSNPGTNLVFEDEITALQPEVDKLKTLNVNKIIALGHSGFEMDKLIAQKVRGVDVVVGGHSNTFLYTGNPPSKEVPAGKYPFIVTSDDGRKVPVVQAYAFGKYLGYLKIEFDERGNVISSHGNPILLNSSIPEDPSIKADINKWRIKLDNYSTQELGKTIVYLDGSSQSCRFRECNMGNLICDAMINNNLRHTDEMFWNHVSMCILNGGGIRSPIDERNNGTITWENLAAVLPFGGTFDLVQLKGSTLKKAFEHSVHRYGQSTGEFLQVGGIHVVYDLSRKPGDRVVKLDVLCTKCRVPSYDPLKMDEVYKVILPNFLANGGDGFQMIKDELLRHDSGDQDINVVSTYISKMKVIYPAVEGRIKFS

T2: cynomolgus monkey CD73 antigen (cynomolgus monkey, UniProt A0A2K5V5U7 27-547)
T2 construct: also called Biotinylated cynomolgus monkey CD73
T2 sequence: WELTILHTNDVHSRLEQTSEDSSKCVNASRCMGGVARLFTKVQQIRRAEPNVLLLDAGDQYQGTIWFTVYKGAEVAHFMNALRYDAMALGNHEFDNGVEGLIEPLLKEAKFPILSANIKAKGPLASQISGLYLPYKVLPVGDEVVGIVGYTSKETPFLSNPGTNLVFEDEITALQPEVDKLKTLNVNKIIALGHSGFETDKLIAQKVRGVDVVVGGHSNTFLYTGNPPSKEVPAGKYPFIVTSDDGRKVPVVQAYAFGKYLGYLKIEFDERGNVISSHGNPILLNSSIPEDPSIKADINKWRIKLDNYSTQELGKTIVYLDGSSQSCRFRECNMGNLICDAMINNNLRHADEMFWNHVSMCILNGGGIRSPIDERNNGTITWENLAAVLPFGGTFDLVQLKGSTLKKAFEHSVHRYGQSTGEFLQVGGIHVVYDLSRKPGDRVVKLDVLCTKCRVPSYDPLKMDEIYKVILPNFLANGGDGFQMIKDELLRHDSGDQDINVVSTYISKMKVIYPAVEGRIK

T3: human CD73 antigen (human, UniProt P21589 27-547)
T3 construct: also called Biotinylated Human CD73
T3 sequence (looked up): T2 sequence with T199M, A350T, I466V

B1: ADI-37497 (antibody, human IgG4 S228P, kappa, F234A L235A, V domains shown)
VH: EVQLVESGGGLVQPGGSLRLSCAASGFTFDDYFMHWVRQAPGKGLEWVSGISWSSGPIDYADSVKGRFTISRDNAKNSLYLQMNSLRAEDTAVYYCAKGKYLPTGSVDYWGQGTLVTVSS
VL: EIVLTQSPGTLSLSPGERATLSCRASQSVSSSYLAWYQQKPGQAPRLLIYGASSRATGIPDRFSGSGSGTDFTLTISRLEPEDFAVYYCQQYYDYPPITFGGGTKVEIKR
B2: ADI-37496 (antibody, human IgG4 S228P, kappa, F234A L235A, V domains shown)
VH: B1 VH with G16R, Y32F, F33Y, G56T, P57S
VL: B1 VL
B3: ADI-37532 (antibody, human IgG4 S228P, kappa, F234A L235A, V domains shown)
VH: QVQLVESGGGVVQPGRSLRLSCAASGFTFSSYSMHWVRQAPGKGLEWVAHIVEGSDKYYADSVKGRFTISRDNSKNTLYLQMNSLRAEDTAVYYCARSRYDWSLFDIWGQGTMVTVSS
VL: EIVLTQSPGTLSLSPGERATLSCGASQSVSSSYLAWYQQKPGQAPRLLIYGASSRATGIPDRFSGSGSGTDFTLTISRLEPEDFAVYYCQQYVLYPFTFGGGTKVEIKR
B4: ADI-37542 (antibody, human IgG4 S228P, kappa, F234A L235A, V domains shown)
VH: QVQLQESGPGLVKPSETLSLTCAVSGYSISEGYYWGWIRQPPGKGLEWIGSIYHTGFTYYNPSLKSRVTISVDTSKNQFSLKLSSVTAADTAVYYCARASIYTPPPEYFQHWGQGTLVTVSS
VL: DIQMTQSPSTLSASVGDRVTITCRASQSISSWLAWYQQKPGKAPKLLIYDASSLESGVPSRFSGSGSGTEFTLTISSLQPDDFATYYCQQSRIYSTFGGGTKVEIKR
B5: ADI-37543 (antibody, human IgG4 S228P, kappa, F234A L235A, V domains shown)
VH: B4 VH with E31S, G36A, Y53F, T55S, Y59F
VL: B4 VL
B6: ADI-37513 (antibody, human IgG4 S228P, kappa, F234A L235A, V domains shown)
VH: EVQLLESGGGVVQPGRSLRLSCAASGFTFNFYGMHWVRQAPGKGLEWVAVINDEGINKYYADSVKGRFTISRDNSKNTLYLQMNSLRAEDTAVYYCARGGARYPIAFDIWGQGTMVTVSS
VL: DIQLTQSPSSVSASVGDRVTITCRASQDISSWLAWYQQKPGKAPKLLIYAASSLQSGVPSRFSGSGSGTDFTLTISSLQPEDFATYYCQQANDFPITFGGGTKVEIKR
B7: ADI-37522 (antibody, human IgG4 S228P, kappa, F234A L235A, V domains shown)
VH: B6 VH with E1Q, L5V, N30S, F31H, N52S, I56S, G100W, A101L
VL: B6 VL
B8: ADI-37504 (antibody, human IgG4 S228P, kappa, F234A L235A, V domains shown)
VH: EVQLLESGGGLVQPGGSLRLSCAASGFTFHNYAMSWVRQAPGKGLEWVSAISGTGRATYYADSVKGRFTISRDNSKNTLYLQMNSLRAEDTAVYYCARGGPYGSGSYWDTFDYWGQGTLVTVSS
VL: EIVMTQSPATLSVSPGERATLSCRASQSVSSNLAWYQQKPGQAPRLLIYGASTRATGIPARFSGSGSGTEFTLTISSLQSEDFAVYYCQQYTNHYTFGGGTKVEIKR
B9: ADI-37503 (antibody, human IgG4 S228P, kappa, F234A L235A, V domains shown)
VH: B8 VH with H30S, T54R, G55A, R56S, A57S
VL: B8 VL
B10: ADI-37507 (antibody, human IgG4 S228P, kappa, F234A L235A, V domains shown)
VH: B8 VH with H30L, S35A, T54R, G55A, R56T, A57S
VL: B8 VL
B11: scfv fragment of ADI-37497 (scFv, V domains shown)
VH: B1 VH
VL: EIVLTQSPGTLSLSPGERATLSCRASQSVSSSYLAWYQQKPGQAPRLLIYGASSRATGIPDRFSGSGSGTDFTLTISRLEPEDFAVYYCQQYYDYPPITFGGGTKVEIK
B12: scfv fragment of ADI-37496 (scFv, V domains shown)
VH: B1 VH with G16R, Y32F, F33Y, G56T, P57S
VL: B11 VL
B13: scfv fragment of ADI-37532 (scFv, V domains shown)
VH: B3 VH
VL: EIVLTQSPGTLSLSPGERATLSCGASQSVSSSYLAWYQQKPGQAPRLLIYGASSRATGIPDRFSGSGSGTDFTLTISRLEPEDFAVYYCQQYVLYPFTFGGGTKVEIK
B14: scfv fragment of ADI-37513 (scFv, V domains shown)
VH: B6 VH
VL: DIQLTQSPSSVSASVGDRVTITCRASQDISSWLAWYQQKPGKAPKLLIYAASSLQSGVPSRFSGSGSGTDFTLTISSLQPEDFATYYCQQANDFPITFGGGTKVEIK
B15: scfv fragment of ADI-37522 (scFv, V domains shown)
VH: B6 VH with E1Q, L5V, N30S, F31H, N52S, I56S, G100W, A101L
VL: B14 VL
B16: scfv fragment of ADI-37503 (scFv, V domains shown)
VH: B8 VH with H30S, T54R, G55A, R56S, A57S
VL: EIVMTQSPATLSVSPGERATLSCRASQSVSSNLAWYQQKPGQAPRLLIYGASTRATGIPARFSGSGSGTEFTLTISSLQSEDFAVYYCQQYTNHYTFGGGTKVEIK
B17: scfv fragment of ADI-37505 (scFv, V domains shown)
VH: B8 VH with E1Q, L5V, H30S, S35T, T54R, R56T
VL: B16 VL
B18: scfv fragment of ADI-37504 (scFv, V domains shown)
VH: B8 VH
VL: B16 VL
B19: scfv fragment of ADI-37507 (scFv, V domains shown)
VH: B8 VH with H30L, S35A, T54R, G55A, R56T, A57S
VL: B16 VL
B20: scfv fragment of ADI-37506 (scFv, V domains shown)
VH: B8 VH with H30S, Y32L, T54R, G55A, R56T, A57S
VL: B16 VL

Changes are numbered by the printed parent chain.

As usually defined, the Kd is the concentration at which binding is half-saturated.

One assay has as its target T1, human CD73 expressed on the cell surface. Put plainly: cell-based or functional assay.
For the molecule B1, the “IC50 for inhibiting the enzymatic activity of CD73 (Calu-6 cells)” value is 0.147 µg/mL.

B2: the “IC50 for inhibiting the enzymatic activity of CD73 (Calu-6 cells)” value was found to be 0.173 µg/mL. For B3, the “IC50 for inhibiting the enzymatic activity of CD73 (Calu-6 cells)” value was 0.114 µg/mL. On the same count and under the same terms, to B4 belongs 0.189 µg/mL; to B5, 0.196 µg/mL. On the same count and under the same terms, the figure for B6 is 0.143 µg/mL; for B7 it is 0.146 µg/mL. For B8, the “IC50 for inhibiting the enzymatic activity of CD73 (Calu-6 cells)” value stood at 0.07 µg/mL. On the same count and under the same terms, the figure for B9 is 0.062 µg/mL.

Regarding B10, the “IC50 for inhibiting the enzymatic activity of CD73 (Calu-6 cells)” value was found to be 0.078 µg/mL.

The next assay has as its target T2, cynomolgus monkey CD73 antigen. Put plainly: ForteBio BLI; antigen on sensor, 100 nM scFv; monovalent; 1:1 model. (In general: BLI is a label-free optical method that tracks binding on a fibre tip over time.)
Experimental: (§1) Human or cynomolgus monkey CD73 antigen protein was loaded on-line to the AHQ sensor (ForteBio) for ForteBio affinity measurement. […] Kinetic analysis was performed by using a 1:1 binding model.
B11 displayed a Kd of 8.82 nM. Still for that read-out and setting: the figure for B12 is 13.7 nM. On the same count and under the same terms, the figure for B13 is 0.53 nM; for B14 it is 2.26 nM. Same read-out and setting: to B15 belongs 2.93 nM; to B16, 6.61 nM; to B17, 5.34 nM.

Take B18: the Kd was 20.2 nM. On the same count and under the same terms, the figure for B19 is 23.7 nM; for B20 it is 4.77 nM.

The next assay has as its target T3, human CD73 antigen. The assay is described as above.
Experimental: as §1
The molecule B11 came in with a Kd of 10.2 nM. The same measure, in the same setting: to B12 belongs 13.8 nM; to B13, 0.581 nM; to B14, 2.84 nM.

The molecule B15 displayed a Kd of 2.43 nM. On the same count and under the same terms, to B16 belongs 7.95 nM; to B17, 5.56 nM; to B18, 15.4 nM.

On to B19, for which the Kd was found to be 9.21 nM. Same read-out and setting: to B20 belongs 5.41 nM.
